# Laboratory results: PMC10825016, “New insights into the structure and function of the complex between the Escherichia coli Hsp70, DnaK, and its nucleotide-exchange factor, GrpE” (The Journal of Biological Chemistry, 2023)
# Tests used:
# [1] = biological target: T1, DnaK nucleotide-binding domain NBD^1–392 T199A (E. coli, UniProt P0A6Y8 1-392, T199A); assay: NMR titration; HMQC spectra of 2H, 13C-methyl ILV labelled protein, 25 °C; nucleotide free; 40 μM NBD^1–392 T199A plus 40 μM GrpE or truncated variants, or 60 μM DnaK plus 80 μM GrpE or truncated variants; settings: both partners purified
# T1 construct: Nucleotide free unless specified; Used unlabelled in SPR and 2H-15N labelled or 2H, ILV 13C-methyl labelled in NMR; also called DnaK NBD; wildtype NBD
# [2] = biological target: T2, Wildtype E. coli full-length DnaK (E. coli, UniProt P0A6Y8 1-638); assay: as above; settings: both partners purified
# T2 construct: Escherichia coli Hsp70 DnaK, wildtype, full length; 2H, ILV 13C-methyl labelled and nucleotide free in the NMR experiments
# DnaK NBD^1–392 Y285R = DnaK NBD^1–392 Y285R (E. coli, UniProt P0A6Y8 1-392, T199A | Y285R); assay: SPR; Biacore T-200, NTA sensor chip activated with Ni2+; N-terminal His-tagged GrpE immobilised; nucleotide-free NBD^1–392 T199A or its variants perfused at diverse concentrations; control without GrpE subtracted; equilibrium and kinetic fits; settings: both partners purified
# [3] = biological target: T1, DnaK nucleotide-binding domain …; assay: as above; settings: both partners purified
# DnaK NBD^1–392 Q260R = DnaK NBD^1–392 Q260R (E. coli, UniProt P0A6Y8 1-392, T199A | Q260R); assay: as above; settings: both partners purified
# [4] = biological target: DnaK NBD^1–392 Δ285 to 295 (E. coli, UniProt P0A6Y8 1-392, T199A | Δ285 to 295); assay: as above; settings: both partners purified
# [5] = biological target: T2, Wildtype E. coli full-length DnaK; assay: not stated; data not shown; nucleotide-free DnaK/GrpE
binder,measurement,setting,value
"GrpE^69–197 (domain or fragment, E. coli, UniProt P09372 69-197, looked up, lacks the N-terminal disordered tail and a portion of the coiled-coil domain; 2H-labelled for the 1H-15N HSQC experiments; also called truncated GrpE variant; source: E. coli BL21(DE3), purified (Ni-NTA, TEV cleavage, second Ni-NTA)) MENLRRRTELDIEKAHKFALEKFINELLPVIDSLDRALEVADKANPDMSAMVEGIELTLKSMLDVVRKFGVEVIAETNVPLDPNVHQAIAMVESDDVAPGNVLGIMQKGYTLNGRTIRAAMVTVAKAKA",binding result,[1],binds
same,binding result,[2],binds
"N-terminal His-tagged GrpE (natural protein, E. coli, UniProt P09372 1-197, looked up, Held on the Ni-NTA sensor chip by its His tag in SPR; source: E. coli BL21(DE3), purified (Ni-NTA); not shown: His tag, N-terminal, kept) MSSKEQKTPEGQAPEEIIMDQHEEIEAVEPEASAEQVDPRDEKVANLEAQLAEAQTRERDGILRVKAEMENLRRRTELDIEKAHKFALEKFINELLPVIDSLDRALEVADKANPDMSAMVEGIELTLKSMLDVVRKFGVEVIAETNVPLDPNVHQAIAMVESDDVAPGNVLGIMQKGYTLNGRTIRAAMVTVAKAKA",Kd,DnaK NBD^1–392 Y285R,120 ± 10 nM
same,koff,DnaK NBD^1–392 Y285R,0.0178 s⁻¹
same,kon,DnaK NBD^1–392 Y285R,24000 M⁻¹ s⁻¹
same,Kd,[3],3.8 ± 0.6 nM
same,koff,[3],0.021 s⁻¹
same,kon,[3],5.9e+06 M⁻¹ s⁻¹
same,Kd,DnaK NBD^1–392 Q260R,4.1 ± 0.3 nM
same,koff,DnaK NBD^1–392 Q260R,0.0231 s⁻¹
same,kon,DnaK NBD^1–392 Q260R,5.6e+06 M⁻¹ s⁻¹
same,Kd,[4],440 ± 60 nM
same,koff,[4],0.0158 s⁻¹
same,kon,[4],39000 M⁻¹ s⁻¹
"GrpE, full-length wildtype, His tag cleaved (natural protein, E. coli, UniProt P09372 1-197, looked up, Escherichia coli GrpE, nucleotide-exchange factor of DnaK, wildtype, full length; also called full-length GrpE; wildtype GrpE; source: E. coli BL21(DE3), purified (Ni-NTA, TEV cleavage, second Ni-NTA); not shown: His tag, N-terminal, cleaved) MSSKEQKTPEGQAPEEIIMDQHEEIEAVEPEASAEQVDPRDEKVANLEAQLAEAQTRERDGILRVKAEMENLRRRTELDIEKAHKFALEKFINELLPVIDSLDRALEVADKANPDMSAMVEGIELTLKSMLDVVRKFGVEVIAETNVPLDPNVHQAIAMVESDDVAPGNVLGIMQKGYTLNGRTIRAAMVTVAKAKA",Kd,[5],3 nM
